Data from patent US20170209564A1.

Legend:
Conditions in all cases: remark: other sources report otherwise
[1] = biological target: s86B4; test: apparent Kd (Kd^app), purified polypeptide; method not stated
[2] = biological target: s6E12; test: as above
[3] = biological target: s74H9; test: as above
[4] = biological target: s127H1; test: as above
[5] = biological target: s55G7; test: as above
[6] = biological target: 86B4; test: ELISA signal over HTRF expression signal, HEK293F
[7] = biological target: 91C4; test: ELISA signal over HTRF expression signal, HEK293F
[8] = biological target: 7A7; test: ELISA signal over HTRF expression signal, HEK293F
[9] = biological target: 181H9; test: ELISA signal over HTRF expression signal, HEK293F
[10] = biological target: 71C4; test: ELISA signal over HTRF expression signal, HEK293F
[11] = biological target: 6E12; test: ELISA signal over HTRF expression signal, HEK293F
[12] = biological target: 171E5; test: ELISA signal over HTRF expression signal, HEK293F
[13] = biological target: T1, H1-mini2-cluster1+5+6-GCN4 without leader sequence and with FLAG-thrombin-foldon-HIS; test: ELISA signal over HTRF expression signal, P. pastoris; average of the parental
[14] = biological target: T1, H1-mini2-cluster1+5+6-GCN4 without …; test: ELISA signal over HTRF expression signal, HEK293F; the reference itself
[15] = biological target: T1, H1-mini2-cluster1+5+6-GCN4 without …; test: ELISA signal over HTRF expression signal, HEK293F; average of the parental
[16] = biological target: T1, H1-mini2-cluster1+5+6-GCN4 without …; test: ELISA signal over HTRF expression signal, P. pastoris; the reference itself

B1: CR6261 (antibody, V domains shown)
VH: EVQLVESGAEVKKPGSSVKVSCKASGGPFRSYAISWVRQAPGQGPEWMGGIIPIFGTTKYAPKFQGRVTITADDFAGTVYMELSSLRSEDTAMYYCAKHMGYQVRETMDVWGKGTTVTVSS
VL: QSVLTQPPSVSAAPGQKVTISCSGSSSNIGNDYVSWYQQLPGTAPKLLIYDNNKRPSGIPDRFSGSKSGTSATLGITGLQTGDEANYYCATWDRRPTAYVVFGGGTKLTVLG
Kd [1]: 150 nM
Kd [2]: 390 nM
Kd [3]: 130 nM
Kd [4]: 130 nM
Kd [5]: 150 nM
fold increase of ratio over parental SEQ ID NO: 6 [6]: 3.44
ratio (binding signal/HTRF signal) [6]: 59.6
fold increase of ratio over parental SEQ ID NO: 6 [7]: 1.98
ratio (binding signal/HTRF signal) [7]: 34.4
fold increase of ratio over parental SEQ ID NO: 6 [8]: 1.47
ratio (binding signal/HTRF signal) [8]: 25.5
fold increase of ratio over parental SEQ ID NO: 6 [9]: 2.11
ratio (binding signal/HTRF signal) [9]: 36.6
fold increase of ratio over parental SEQ ID NO: 6 [10]: 1.72
ratio (binding signal/HTRF signal) [10]: 29.9
fold increase of ratio over parental SEQ ID NO: 6 [11]: 2.85
ratio (binding signal/HTRF signal) [11]: 49.5
fold increase of ratio over parental SEQ ID NO: 6 [12]: 1.62
ratio (binding signal/HTRF signal) [12]: 28.1
ratio (binding signal/HTRF signal) [13]: 5.94
fold increase of ratio over parental SEQ ID NO: 6 [14]: 1
ratio (binding signal/HTRF signal) [15]: 17.4
fold increase of ratio over parental SEQ ID NO: 6 [16]: 1
